{"source": "the DeepSol protein solubility set", "data": [{"test": "soluble on expression in E. coli; label from the status in PepcDB or PDB records", "values": [{"sequence": "MSLNEPLAERIRPKTLEDYVSQQHLVGENGILTKLIKQGIIPSLILWGPPGIGKTTLANIIATTSNRPFYTLSAISSGVKDVRDVIEKAKKSGGLFTAKNPILFIDEIHRFSKSQQDSLLGAVEKGWVTLIGATTENPSFEVIPALLSRCQIYILNSFDKEELIALLHRAMEKDAFLSSKKIILKETEALLQVSGGDARKLLNIFELLVSVDDEVVITNELVLSKIQKNTARYDKSGPQHYDIVSAFIKSIRGSDPNAAVYWLARMIEGGEDVKFIARRMLILASEDIGNANPTALIMANNTFQAVAIVGNPESRIILSQCAIYLSNSAKSNASYLAIGAAQKLVQETGDLSVPLNLRNAPTKLMKDLDYGADYKYSHDYPNSFVAQEFLPKTLSGNKIYTPGKNPREQQFKEVLKNRWKNKYEGHHHHHH", "soluble on expression in E. coli": "not soluble"}, {"sequence": "MNQPIELSLEQQFSIRSFATQVQNMSHDQAKDFLVKLYEQMVVREATYQELLKHQWGLDSGSTPA", "soluble on expression in E. coli": "soluble"}, {"sequence": "MSLKQAMGYLRQSTTKQQSLAAQKQTIKVLAEKHNIQHITFYSDKQSGRTDKRNGYQQITELIQQGQCDVLCCYRLNRLHRNLKNALKLMKLCQTYHVHILSVRDGYFDMNKAFDRLKLNIFISLAELESDNIGEQVKNGLREKAKQGKLITTHAPFGYHYHNGTFTIDTVKSPTVKAVFNYYLQGYGYKKIAQYLEADNKFINRKPYQVRNIILNPNEGHHHHHH", "soluble on expression in E. coli": "not soluble"}, {"sequence": "MVAVERVESLAKSGIISIPKEYIRPKEELESINDVFLEEKKEDGPQVPTIDLKNIESDDEKIRENCIEELKKASLDWGVMHLINHGIPADLMERVKKAGEEFFSLSVEEKEKYANDQATGKIQGYGSKLANNASGQLEWEDYFFHLAYPEEKRDLSIWPKTPSDYIEATSEYAKCLRLLATKVFKALSVGLGLEPDRLEKEVGGLEELLLQMKINYYPKCPQPELALGVEAHTDVSALTFILHNMVPGLQLFYEGKWVTAKCVPDSIVMHIGDTLEILSNGKYKSILHRGLVNKEKVRISWAVFCEPPKDKIVLKPLPEMVSVESPAKFPPRTFAQHIEHKLFGKEQEELVSEKND", "soluble on expression in E. coli": "soluble"}, {"sequence": "MGSDKIHHHHHHMHMRVLIINTSERIGGAAIAANRLMEALKNNGIKTKMLVRDKQTDQISVVELKKSWWKVWQFIWERVVIWQANHFKKHNLFAVDIANTGTNITALPEFTQADVIHLHWINQGMLSLTDIRRIIQSGKPIVWTMHDMWPFTGICHYAGDCDKYATQCHNCPQLYKGSRKDIAYRTFQKKKKLFEGAQITFVACSRWLESLAKKSDLIKGQTITNIPNAINTNLFKPRDKKQAREKCHLPQDKKLLLFGSVKITDKRKGIDYLVSACKQIASSYPDFSKELGVVVFGNQAEQYASLFPFPIYPMNYVSNEKELVDIYNAVDLYVTPSLQDNLPNTIVEAMACGIPCIGFNVGGIPQMIDHLHNGYVAEYQSSKDLANGIHWALTEGEYESLSEEACRKAVSSYSESTIAKKYVEIYNKITGNHA", "soluble on expression in E. coli": "not soluble"}, {"sequence": "MGHHHHHHSHMKNSSSVSNTLTNGCVINGHLDFPSTTPLSGMESRNGQCLTGTNGISSGLAPGQPFPSSQGSLCISGTEEPEKTLRANPELCGSLHLNGSPSSCIASRPSWVEDIGDNLYYGHYHGFGDTAESIPELNSVVEHSKSVKVQERYDSAVLGTMHLHHGS", "soluble on expression in E. coli": "soluble"}, {"sequence": "MQAAKVDTLSVHSDAMNKEVQVITICPDKAMAGEKCPVLYLLHGYGGNAGTWLGIKPELPRIADKEGIIFVCPDGKNSWYWDSPLNKEYRYETFVSKELVNYIDKNFTTKAERGGRAVTGLSMGGHGSLWLSIRHKDVFGGGGSMSGGLDIRPFPNNWEMKKQLGEEASNKQRWDEHTVINQLDKIKNGDLAVIIDCGCDDFFLEVNKAVHEKLLKKKINHDFIIRPGGHTGRYWNNAIDYQILFFSKFFNK", "soluble on expression in E. coli": "not soluble"}, {"sequence": "MHHHHHHSSGRENLYFQGQKDGIFKVMLVGESGVGKSTLAGTFGGLQGDSAHEPENPEDTYERRIMVDKEEVTLVVYDIWEQGDAGGWLRDHCLQTGDAFLIVFSVTDRRSFSKVPETLLRLRAGRPHHDLPVILVGNKSDLARSREVSLEEGRHLAGTLSCKHIETSAALHHNTRELFEGAVRQIRLRRGRNHA", "soluble on expression in E. coli": "soluble"}, {"sequence": "MENKTIQLFGNITGGPIELHSQTGSRRRRDTVENAGKSAWDTAGDVGKSVIDTVENAGAAVKNGASDLDEKLMGSG", "soluble on expression in E. coli": "not soluble"}, {"sequence": "MAKAGGITNAVNVGIAVQADWENREFISHISLNVRRLFEFLVQFGKPHSLTYFSVLGFEFN", "soluble on expression in E. coli": "not soluble"}, {"sequence": "MDSQAQVLILLLLWVSGTCGDIVMSQSPSSLAVSAGEKVTMSCKSSQSLLNSRTRKNYLAWYQQKPGQSPKLLIYWASTRESGVPDRFTGSGSGTDFTLTISSVQAEDLAVYYCKQSYNLYTFGGGTKLEIKRADAAPTVSIFPPSSEQLTSGGASVVCFLNNFYPKDINVKWKIDGSERQNGVLNSWTDQDSKDSTYSMSSTLTLTKDEYERHNSYTCEATHKTSTSPIVKSFNRNEC", "soluble on expression in E. coli": "soluble"}, {"sequence": "AVAQQLRAESDFEQLPDDVAISANIADIEEKRGFTSHFVFVIEVKTKGGSKYLIYRRYRQFHALQSKLEERFGPDSKSSALACTLPTLPAKVYVGVKQEIAEMRIPALNAYMKSLLSLPVWVLMDEDVRIFFYQSPYDSEQVP", "soluble on expression in E. coli": "soluble"}, {"sequence": "KFGELREISGNQYVNEVTNAEKDLWVVIHLYRSSVPMCLVVNQHLSVLARKFPETKFVKAIVNSCIEHYHDNCLPTIFVYKNGQIEGKFIGIIECGGINLKLEELEWKLSEVGAIQSDLEEN", "soluble on expression in E. coli": "soluble"}, {"sequence": "RQIQKKIESGELKAAPEIVEADAECCGQHEICEKESLLAAVSKKIEYYDDEELDRFRGRPSNGYNEEEVEEFREIMYTCKEDEVAGWSRSLQLRGIELPDELKDELFLIVGERRFK", "soluble on expression in E. coli": "not soluble"}, {"sequence": "MEFKLLQTFIEVVRQGSFSKAAENLFTTQSTVSKAIKQLEEELGITLIERFKKRNVPTTAGEIVYQRGTKLLADRDDLLKELDEIRGLKQGRLRLGISPVGSSTLFAPLFVLYRQRYPGIEVELVEHGSDKLAECLRAGEIDFAGTLLPISEEFDCQLVRSEPLVALLASGHPLATKHCISLPELKEIPFILFGSGFALHRIILDACRHAGFEPKVVAQSSQIDFMLELVAAGLGVTFLPRMIATQRHTTQIRSLLLNGSEFQWNMAMTWRRNSYLSEAAQAWLALVREVHVDN", "soluble on expression in E. coli": "not soluble"}, {"sequence": "MIKRNLLVMGLAVLLSACGFQLRGTGTQELSIKELDLSARDAYGTTIKMLKQQLESSGVRVHAGAPYKLVLLSEENSQRTLSYTGGGNSAEYEIGTTLRYEILTHDNLHLLDDKLEVQKVFLHDGNNITGSDQESSETRKEMRRDLIQRMLIRLQLLTPEQLAQLQATAEAKAKAEADALEAARKAEAETPQQSPMELPNQLEHHHHHH", "soluble on expression in E. coli": "soluble"}, {"sequence": "GSSGSSGYQPTYNPTLPYKRPIPGGLSVGMSVYIQGMAKENMRRFHVNFAVGQDDGADVAFHFNPRFDGWDKVVFNTMQSGQWGKEEKKKSMPFQKGKHFELVFMVMPEHYKVVVNGNSFYEYGHRLPVQMVTHLQVDGDLELQSINFLGGQPAAAPY", "soluble on expression in E. coli": "soluble"}, {"sequence": "MAHHHHHHMSLHKEICNYIVKFSSKPVQRLGYEPPKKKRSILRELYHKLIFPYYFKFIRAPYERWQFCATTKFLREHGLMYDDMYSDKDPVIERAISLLPKDIQTRRYRRMLRGTHINYLRLFLHPSEQNYDPYIPYLAPYIEEAKFQLQEEEELLGYHPYDRRLYSGGTTGFGDLEPGLHFLVSIPNLYGAAIPHSKKK", "soluble on expression in E. coli": "soluble"}, {"sequence": "GHHHHHHHHHHGLVPRGSHMYFQKARLIHAELPLLAPFKTSYGELKSKDFYIIELINEEGIHGYGELEAFPLPDYTEETLSSAILIIKEQLLPLLAQRKIRKPEEIQELFSWIQGNEMAKAAVELAVWDAFAKMEKRSLAKMIGATKESIKVGVSIGLQQNVETLLQLVNQYVDQGYERVKLKIAPNKDIQFVEAVRKSFPKLSLMADANSAYNREDFLLLKELDQYDLEMIEQPFGTKDFVDHAWLQKQLKTRICLDENIRSVKDVEQAHSIGSCRAINLKLARVGGMSSALKIAEYCALNEILVWCGGMLEAGVGRAHNIALAARNEFVFPGDISASNRFFAEDIVTPAFELNQGRLKVPTNEGIGVTLDLKVLKKYTKSTEEILLNKGWS", "soluble on expression in E. coli": "soluble"}, {"sequence": "MSLKEANLLIDLRGEPGINCNGFCKFCYFRKVNKNNPQPFGCRYCQFTVGCDYCMYSVREINGDFIPLPFALMELQSSLLFKRYSKVNLTAGGDVSCYPQLEELCKAINNIGLKIHLGYTSGKGFDNVEIAKNLVDYGVDEVTFSVFSTNPKLRKEWMNDKNAETALKCLRYFCENCEVHCAIIVIPGVNDGEELKKTVSDLVDWGANAVILMRFANSEEQGLILGNAPLIEGIKPHSVEEFKNIVDEIHNEFGDYIRVTGTPLHDPVAGTPFALAKEENSHILERLKDKINGEATIITGNVAYPFLKKIFDETSVNVVKVNKDIADLITAKDLEKLDLKDVKETVFIPPKAFVHDRVAEEILRRDGVDRIVVRGVEQLTLDGEVSGIYTREEALKFEIEAFEELIGMINFFGMKKQEGHHHHHH", "soluble on expression in E. coli": "soluble"}, {"sequence": "MELKYVIPNMEKTFGQLEYAGEGNIEQRRINGRPTILSRSYNLYSTIQRADDIVVILPSEAGEKHFESDEKVKLINPHITAEGYKIGNRGFTNYIMHADDMVKALEHHHHHH", "soluble on expression in E. coli": "not soluble"}, {"sequence": "MSLTKKELRKEQTNRFIESTIITTDLLLSSYLYDSTKMEEFLSFIANLDNKYSFINMYLVRTQFPGASIVKSYSSWKKENIQVRKNEKGISIFRPKVIEYVVYNNTKVTKDKWTNEIKELVKNNELEVYTYTKGFTLAKVFDISQTTLPKAQYPKQYFSYFIKEDNENINPNTKLLSLLCNFIAKHNIGITYATMGLSTSEQRFYDKNSHGIKHWIRLNDKNSITQNIYSLVKEYAHTLLGHDISAINNIENRYQAQLVAYAICKSFRLKGIELSSFDAFRSWVNTSTKEMRKKWINSVIFASKQFANDFNYFLDEIEINVDKANLRETASINELMGREGHHHHHH", "soluble on expression in E. coli": "soluble"}, {"sequence": "AVFNYALMPSLQQFNKILAHELNLVLDEDGPLKSDAPLRRQLLERLGVTVHSINSEKAVEFNHAMSIDLMSEEMTQELGSPTEVRLLLGSESYILWMHIEKLPNSIIRIPLSELQEEDFAPLFR", "soluble on expression in E. coli": "not soluble"}, {"sequence": "MENIMKITIINGSPRFKKSNSEILKNYLLNFIKENEINEFFSFSIKLDDDIKTDIYNSDILIFIFPLYVDSIPANLLDLLVRFEDENVINSKTKIYCIVNNGFFEGVQNHLAISQIRCWSKKVNAQWGQGIGVGGGELLSHLKKVPLGQGPLKNLGIILEKFSKNILSLKGDEDIYINPNYPKILYFLQANISWFIEGRKNKLKFRDLFKKILEHHHHHH", "soluble on expression in E. coli": "not soluble"}, {"sequence": "MGAAKASLGRIFPESSILFLCDMQEKLRDRILYFPQIVSMAARMLKVAQMLEIPVLLTEHYPQGLGPTVPELGAQGLRTMSKTSFSMVPPLQQELDKLPQLQSVLLRGIETQGCILHTALDLLDRGLQVHVAVDACSSQSEMNRLVALARMQQSGVFLSTSEVLILQLVKDAAHPQFKEIQKILKEPVTDIGLLGFFQGKKNSLLPNSRT", "soluble on expression in E. coli": "not soluble"}, {"sequence": "MFSEKFFTASFGPDDEQPAIKAAANNAAPIFHLFILEFLLFKYQLLSKDSEYPYLLIRAGDNNRPKKAERRDKASKMWSRNQEKHGSKKSEKSNQNKNFYVREFFSFGASSKKFPNHVFRDVF", "soluble on expression in E. coli": "not soluble"}, {"sequence": "MADEALFLLLHNEMVSGVYKSAEQGEVENGRCITKLENMGFRVGQGLIERFTKDTARFKDELDIMKFICKDFWTTVFKKQIDNLRTNHQYLAFTCGLIRGGLSNLGIKSIVTAEVSSMPACKFQVMIQKL", "soluble on expression in E. coli": "not soluble"}, {"sequence": "GPGSMEPKRSGNMACVERERERDYWRHLERLNNQRCRIDNTIPVSCAYVRPIGSMRRNPARAEQVNRDNQKLVEKMVHIMNTRGGVDTSEPWRDYNKAINSQRRRNQEQANIARENAKLLDRLERTQPTYRSEKFEADRRRNEEFAARASRYPYQPMDRTRY", "soluble on expression in E. coli": "soluble"}]}]}
